Assay [1] addresses T1, Bovine Submaxillary Mucin (BSM) (bovine).
T1 construct: Glycoprotein carrier of STn; also called BSM mucin; non-biotinylated BSM
As to the kind of experiment: ELISA on BSM-coated wells (3 ug/mL), normalised dose response. The procedure:
(§1) In order to evaluate the antibody binding to the target antigen STn, we employed an in vitro assay using a mucin that naturally expresses STn: Bovine Submaxillary Mucin (BSM). The humanized variants (V1, V2 and V3) were incubated using BSM-coated wells and binding was evaluated using ELISA assay.
(§2) An ELISA-assay was performed using Bovine Submaxillary Mucin (BSM). 96 well plates were coated using BSM [3 ug/mL], dissolved in 1×PBS. Absorbance was detected using a microplate reader at 450 nm. Absorbance values were normalized against the background and plotted as a % of the dose response effect versus the antibody dose (log scale) as shown in the graph. The EC50 (in ug/mL) was calculated for each condition.

Assay [2] concerns the target T1, Bovine Submaxillary Mucin (BSM). As to the kind of experiment: ELISA on BSM, OD against antibody concentration.
For assay [3] the target is unchanged. Kind of assay: ELISA on BSM-coated wells. The procedure: as §1, §2

The source of these data is patent publication US20260258149A1 (BIONTECH, published 2026).

Changes are numbered by the printed parent chain. Values joined by “and” are separate entries in the source; they are usually repeats but may differ in a detail not shown here. Equal values may be shown once.

B1: humanized anti-STn antibody clone V1 (antibody, V domains shown)
VH: QVQLQESGPGLVKPSQTLSLTCTVIGYSITSGYYWNWIRQPPGKGLEWIGSINYDGSNIYNPSLKSRVTISRDTSKNQFSLKLSSVTAADTAVYYCARGGDYWGQGTTVTVSS
VL: EIVLTQSPATLSLSPGERATLSCSASSSVSYMHWFQQKPGQAPRRWIYDTSKRATGVPARFSGSGSGTDYTLTISSLEPEDFAAYYCQQWSSDPPMLTFGGGTKLEIK
notes: Humanized variant of L2A5; Variable domains were cloned into Absolute Antibody vectors 'of the appropriate species and type' and expressed in HEK 293; also called CBS-V1
As to B1, the EC50 in assay [1] is 0.324 µg/mL and 0.457 µg/mL. In assay [2], the half-maximal effective concentration (EC50 (read off the curve)) is about 0.2 µg/mL.

B2: humanized anti-STn antibody clone V2 (antibody, V domains shown)
VH: B1 VH with T23S, S66D
VL: B1 VL with E1D, T10I, P39S, R44K, R53L, T55S, P79A
notes: Humanized variant of L2A5; also called CBS-V2
B2: in assay [3], the “fold decrease in EC50 compared to V1 and V3 clones” value was 3 fold. Further, the EC50 in assay [1] was 0.0665 µg/mL and 0.137 µg/mL.

B3: humanized anti-STn antibody clone V3 (antibody, V domains shown)
VH: B1 VH with T23S, S66D
VL: B1 VL
notes: Humanized variant of L2A5
Take B3: in assay [1], the EC50 was 0.344 µg/mL and 0.449 µg/mL.
